Reference: patent publication US20140303084
Changes are numbered by the printed parent chain.

Experiments:
[1] = tested on: T1, compound 10
T1 sequence: KLTCLASYCWLFWTGIA

[2] = tested on: T2, RRAPGKLTCLASYCWLF WTGWS RDTASHASDS
T2 sequence: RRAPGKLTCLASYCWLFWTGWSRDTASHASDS

[3] = tested on: T3, KLTCLASYCQLF
T3 sequence: KLTCLASYCQLF

[4] = tested on: T4, PRIrTVGPGSrSASGKSTCLASYCWLFWTGIA-PEG4-Pra
T4 sequence: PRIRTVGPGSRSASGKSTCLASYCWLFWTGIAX

[5] = tested on: T5, TLWPWGGQGG RNAPG KLTCLASYCWLFWTGIA
T5 sequence: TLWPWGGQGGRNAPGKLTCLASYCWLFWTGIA

[6] = tested on: T6, VSGTGKLTCLASYCWLFQLGSF
T6 sequence: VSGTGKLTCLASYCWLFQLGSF

[7] = tested on: T7, QAKMLKLTCLASYCWLFWVTRS
T7 sequence: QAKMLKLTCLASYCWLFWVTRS

[8] = tested on: T8, KLTCQASYCWLF
T8 sequence: KLTCQASYCWLF

[9] = tested on: T9, AQLRRKLTCLASYCWLFGFFSP
T9 sequence: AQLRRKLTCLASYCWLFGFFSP

[10] = tested on: T10, KLTCLASYC-Nal-LF
T10 sequence: KLTCLASYCXLF

[11] = tested on: T11, Palmitoyl-(PEG)27(PEG)27-KLTCLASYCWLF
T11 sequence: KLTCLASYCWLF

[12] = tested on: T12, Lys(Me)-LTCLASYCWLF
T12 sequence: KLTCLASYCWLF

[13] = tested on: T13, KLTCLSSYCWLF
T13 sequence: KLTCLSSYCWLF

[14] = tested on: T14, RRAPGKLTCLASYCWLfWTGIA
T14 sequence: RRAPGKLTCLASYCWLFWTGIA

[15] = tested on: T15, RRAPGCLTALASYAWLCWTGIA-CONH2
T15 sequence: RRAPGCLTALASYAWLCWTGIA

[16] = tested on: T16, RRAPGKLTCLASYCWLF WSGIA PQPPNMRPSV
T16 sequence: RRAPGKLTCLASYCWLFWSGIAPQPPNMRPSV

[17] = tested on: T17, HYARVQLRCLDGYCWLLTKSRM
T17 sequence: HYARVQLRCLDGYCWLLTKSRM

[18] = tested on: T18, Dab-LTCLASYCWLF
T18 sequence: XLTCLASYCWLF

[19] = tested on: T19, RRAPGKLT-Asp-LASY-Orn-WLFWTGIA-COOH
T19 sequence: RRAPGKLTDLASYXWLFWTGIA

[20] = tested on: T20, SKQGRPASPDrRAAGKLTCLASYCWLFWTGIA
T20 sequence: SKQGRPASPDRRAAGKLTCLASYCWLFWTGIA

[21] = tested on: T21, RGRSAKLRCLASYCWLFFTVIL
T21 sequence: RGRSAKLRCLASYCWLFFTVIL

[22] = tested on: T22, KLLKLLLKLLLKLLK-k-MeLeu-TCLASYCWLF
T22 sequence: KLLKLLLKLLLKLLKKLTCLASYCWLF

[23] = tested on: T23, RRAPGKLTCLASYCWLF WTGLA STLYKTYTRE
T23 sequence: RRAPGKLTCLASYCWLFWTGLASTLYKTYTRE

[24] = tested on: T24, LRQRLAKTCVASYCWLFSLVAS
T24 sequence: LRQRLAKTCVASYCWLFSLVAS

[25] = tested on: T25, RSQGRKLTCLASYCWLFLVVHR
T25 sequence: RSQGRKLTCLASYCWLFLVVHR

[26] = tested on: T26, KLSCQAGQCWVF
T26 sequence: KLSCQAGQCWVF

[27] = tested on: T27, rRAAGKLTCLASYCWLAATGIA
T27 sequence: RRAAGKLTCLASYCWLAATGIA

[28] = tested on: T28, KATCLASYCWLF
T28 sequence: KATCLASYCWLF

[29] = tested on: T29, RRAPGKLTCLASYCWLF RTQIA TPESEYRQQA
T29 sequence: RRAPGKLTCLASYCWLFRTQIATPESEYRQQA

[30] = tested on: T30, rRAPGKLTCLASYCWLFWTGIA-PEG16-Lys(PEG2-Biotin)-PEG16-CNPRGD-Tyr(OEt)-RC
T30 sequence: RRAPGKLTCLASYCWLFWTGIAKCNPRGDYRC

[31] = tested on: T31, PRIRTVGPGSRSASGKLTCAASYCWLFWTGIA
T31 sequence: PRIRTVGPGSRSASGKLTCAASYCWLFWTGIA

[32] = tested on: T32, RRAPGKLQCLASYCWLFWTGIK
T32 sequence: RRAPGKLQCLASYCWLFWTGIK

[33] = tested on: T33, rRAPGKLTCLASYCWLFWTGIA-COOH
T33 sequence: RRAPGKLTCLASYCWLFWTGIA

[34] = tested on: T34, RRAPGKLT-Lys-LASY-Asp-WLFWTGIA-CONH2
T34 sequence: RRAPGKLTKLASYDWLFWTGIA

[35] = tested on: T35, PRIRTVSPGSRSASGKLTCLASYCWLFWTGIA
T35 sequence: T31 sequence with G7S, A20L

[36] = tested on: T36, KRYVYRQMCLVSACWLLQLGYA
T36 sequence: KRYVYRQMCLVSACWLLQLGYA

[37] = tested on: T37, SAQGRPISPDrRAAGKLTCLASYCWLFWTGIA
T37 sequence: T20 sequence with K2A, A7I

[38] = tested on: T38, KKTCLASYCWLF
T38 sequence: KKTCLASYCWLF

[39] = tested on: T39, KLTCKASYCWLF
T39 sequence: KLTCKASYCWLF

[40] = tested on: T40, KLTCLASYCW-MeLeu-F
T40 sequence: KLTCLASYCWLF

[41] = tested on: T41, PRIRTVGPGSRSASGKLSCLASYCWLFWTGIA
T41 sequence: T31 sequence with T18S, A20L

[42] = tested on: T42, PRIRTVGPGSRSASGKLTCLASYCWLFATGIA
T42 sequence: T31 sequence with A20L, W28A

[43] = tested on: T43, RRAPGKK(PEG2-Biotin)TCLASYCWLFWTGIA
T43 sequence: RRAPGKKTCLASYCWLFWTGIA

[44] = tested on: T44, KLTCLASYCW-Nle-F
T44 sequence: KLTCLASYCWXF

[45] = tested on: T45, RRAPGKLTCLASYCWLF FTGVA RSTTATTNTQ
T45 sequence: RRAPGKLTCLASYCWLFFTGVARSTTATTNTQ

[46] = tested on: T46, KLT-Glu-LASY-Orn-WLF
T46 sequence: KLTELASYXWLF

[47] = tested on: T47, RRAPGKLQCLASYCWLFWTG-Nle-A
T47 sequence: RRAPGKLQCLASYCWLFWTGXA

[48] = tested on: T48, SGRGGKLTCQASFCQLFGNGLS
T48 sequence: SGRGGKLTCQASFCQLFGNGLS

[49] = tested on: T49, KGAYQKLTCLASYCLLFLLTAQ
T49 sequence: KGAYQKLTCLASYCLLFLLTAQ

For human Factor IXa, which “Vmax, FXa generation assay with hFIXa; (++) means 1-2” value [1] is on record?
Its value is “(++)”.

What about the Vmax, FXa generation assay [2] of the same substance?
Its Vmax, FXa generation assay is > 2.

What about the Vmax, FXa generation assay [3] of the same substance?
Its Vmax, FXa generation assay is > 3.

And the Vmax, FXa generation assay [4]?
The Vmax, FXa generation assay was > 3.

What about the Vmax, FXa generation assay [5] of the same substance?
The Vmax, FXa generation assay was > 2.

What about the “Vmax, FXa generation assay; (++) means 1-2” value [6] of the same substance?
The value was “(++)”.

And the Vmax, FXa generation assay [7]?
Its Vmax, FXa generation assay is > 2.

What about the “Vmax, FXa generation assay; (++) means 1-2” value [8] of the same substance?
The value was “(++)”.

What about the “Vmax, FXa generation assay; (++) means 1-2” value [9] of the same substance?
Its value is “(++)”.

And the Vmax, FXa generation assay [10]?
The Vmax, FXa generation assay was > 3.

What about the Vmax, FXa generation assay [11] of the same substance?
Its Vmax, FXa generation assay is > 0.3.

What about the “Vmax, FXa generation assay; (++) means 1-2” value [12] of the same substance?
Its value is “(++)”.

What about the Vmax, FXa generation assay [13] of the same substance?
The Vmax, FXa generation assay was > 2.

What about the “Vmax, FXa generation assay; (++) means 1-2” value [14] of the same substance?
The value was “(++)”.

And the “Vmax, FXa generation assay; (++) means 1-2” value [15]?
The value was “(++)”.

And the Vmax, FXa generation assay [16]?
Its Vmax, FXa generation assay is > 3.

What about the Vmax, FXa generation assay [17] of the same substance?
The Vmax, FXa generation assay was > 2.5.

And the “Vmax, FXa generation assay; (++) means 1-2” value [18]?
Its value is “(++)”.

What about the “Vmax, FXa generation assay; (++) means 1-2” value [19] of the same substance?
The value was “(++)”.

And the Vmax, FXa generation assay [20]?
Its Vmax, FXa generation assay is > 2.

What about the Vmax, FXa generation assay [21] of the same substance?
The Vmax, FXa generation assay was > 2.

What about the Vmax, FXa generation assay [22] of the same substance?
Its Vmax, FXa generation assay is > 2.

What about the “Vmax, FXa generation assay; (++) means 1-2” value [23] of the same substance?
Its value is “(++)”.

What about the Vmax, FXa generation assay [24] of the same substance?
Its Vmax, FXa generation assay is > 1.5.

What about the “Vmax, FXa generation assay; (++) means 1-2” value [25] of the same substance?
The value was “(++)”.

And the Vmax, FXa generation assay [26]?
The Vmax, FXa generation assay was > 2.

What about the Vmax, FXa generation assay [27] of the same substance?
The Vmax, FXa generation assay was > 0.8.

What about the Vmax, FXa generation assay [28] of the same substance?
Its Vmax, FXa generation assay is > 2.

What about the Vmax, FXa generation assay [29] of the same substance?
Its Vmax, FXa generation assay is > 3.

What about the Vmax, FXa generation assay [30] of the same substance?
Its Vmax, FXa generation assay is > 3.

What about the Vmax, FXa generation assay [31] of the same substance?
Its Vmax, FXa generation assay is > 2.

And the “Vmax, FXa generation assay; (++) means 1-2” value [32]?
The value was “(++)”.

And the Vmax, FXa generation assay [33]?
Its Vmax, FXa generation assay is > 2.

What about the “Vmax, FXa generation assay; (++) means 1-2” value [34] of the same substance?
Its value is “(++)”.

And the Vmax, FXa generation assay [35]?
Its Vmax, FXa generation assay is > 3.

And the “Vmax, FXa generation assay; (++) means 1-2” value [36]?
Its value is “(++)”.

And the Vmax, FXa generation assay [37]?
Its Vmax, FXa generation assay is > 2.

And the “Vmax, FXa generation assay; (++) means 1-2” value [38]?
The value was “(++)”.

And the Vmax, FXa generation assay [39]?
Its Vmax, FXa generation assay is > 3.

What about the Vmax, FXa generation assay [40] of the same substance?
The Vmax, FXa generation assay was > 2.

What about the Vmax, FXa generation assay [41] of the same substance?
The Vmax, FXa generation assay was > 3.

What about the Vmax, FXa generation assay [42] of the same substance?
The Vmax, FXa generation assay was > 3.

What about the Vmax, FXa generation assay [43] of the same substance?
The Vmax, FXa generation assay was > 2.

What about the Vmax, FXa generation assay [44] of the same substance?
Its Vmax, FXa generation assay is > 2.

What about the Vmax, FXa generation assay [45] of the same substance?
Its Vmax, FXa generation assay is > 2.

What about the “Vmax, FXa generation assay; (++) means 1-2” value [46] of the same substance?
The value was “(++)”.

What about the Vmax, FXa generation assay [47] of the same substance?
The Vmax, FXa generation assay was > 2.

And the “Vmax, FXa generation assay; (++) means 1-2” value [48]?
Its value is “(++)”.

What about the “Vmax, FXa generation assay; (++) means 1-2” value [49] of the same substance?
The value was “(++)”.
